Data published in a protein production outcome set (Wang et al. 2014).

Test: label from the status in PepcDB records
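Also: failed if final PepcDB status was selected cloned or expressed and not failed if soluble or beyond.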

| Sequence | protein production |
| --- | --- |
| MSLESMLSHPPIPIADMAEHTERLKANDSLKLSQEYESIDPGQQFTWEHSNLEVNKPKNRYANVIAYDHSRVILQPIEGIMGSDYINANYVDGYRRQNAYIATQGPLPETFGDFWRMVWEQRSATIVMMTRLEEKSRIKCDQYWPNRGTETYGFIQVTLLDTIELATFCVRTFSLHKNGSSEKREVRQFQFTAWPDHGVPEYPTPFLAFLRRVKTCNPPDAGPIVVHCSAGVGRTGCFIVIDAMLERIKPEKTVDVYGHVTLMRSQRNYMVQTEDQYSFIHEALLEAVGCGNTEVPARSLYAYIQKLAQVEPGEHVTGMELEFKRLANSKAHTSRFISANLPCNKFKNRLVNIMPYESTRVCLQPIRGVEGSDYINASFIDGYRQQKAYIATQGPLAETTEDFWRMLWENNSTIVVMLTKLREMGREKCHQYWPAERSARYQYFVVDPMAEYNMPQYILREFKVTDARDGQSRTVRQFQFTDWPEQGVPKSGEGFIDFIGQVHKTKEQFGQDGPISVHCSAGVGRTGVFITLSIVLERMRYEGVVDIFQTVKMLRTQRPAMVQTEDEYQFCYQAALEYLGSFDHYATEGHHHHHH | not failed |
| MSLEWCKNRLEITGRSVFVDIMQQWVTGEEVPLYRHAIQQSIRLFLAGCAGILKPVKCMEYPPFPRLVSHGTGSAVASNLAFQHWLDLLLKDAVLDGDTIRQIDRIYLQSGIASVKWETIPEGARQIITQLMARQYPDWFGVASWSSHINGADCWTKLGVMQEHACNCDMLMIIPTRLAIELNGNSQLLTGVSTTHDLYSHLYGMAWPSGQNIIWQRDRINSLRLDFDSPSYPPSAELMGELSAVFDCEIRHWYQEPVNGIRGYDCYDRGDHVDSGEYGAGPFLPPLKVEEVTVNGQEEAAEGHHHHHH | not failed |
| MSLFGRLLSLLLAFVPLSICAAVNHLPVVGEDYVEIPDGRPFAPLAGKIEVVEIFGYTCPHCAHFDSKLQAWGARQAKDVRFTLVPAVFGGVWDPFARAYLAADVLGVAKRSHAAMFEAIHEKGSVPIQNVGPDELAVFYAGYGVQPDRFVATFNGPEVEKRFQAARAYALKVRPVGTPAIVVDGRYMVTGHDFDDTLRITDYLVSRERAASHGR | failed |
| MSLGELNVATVTRRPEILLVDSQEVILQRLQQLLSPLPYTLHFARDATQALQLLASREVDLVISAAHLPQMDGPTLLARIHQQYPSTTRILLTGDPDLKLIAKAINEGEIYRYLSKPWDDQELLLALRQALEHQHSERERLRLQDEGHHHHHH | not failed |
| MSLGVTMHDVAKAAGVSAITVSRVLNQPQQVSEQLREKVMQAVDALAYVPSRSASTLASAKSRTVLVLIPSLANTVFLETLTGIETVLDAAGYQMLIGNSHYDAGQELQLLRAYLQHRPDGVLITGLSHAEPFERILSQHALPVVYMMDLADDGRCCVGFSQEDAGAAITRHLLSRGKRRIGFLGAQLDERVMKRLDGYRAALDAADCRDAGLEWLDPQPSSMQMGADMLDRALAERPDCDALFCCNDDLAIGALARSQQLGIAVPERLAIAGFNDLQPAAWCTPPLTTVATPRRDIGVHAAKALLQLIDGEEPASRRADLGFRLMLRRSSEGHHHHHH | not failed |
| MSLHPVSISLSSYGADLVRSRGQASFLPLLAMAGAQRVELREELFAGPPDTEALTAAIQLQGLECVFSSPLELWREDGQLNPELEPTLRRAEACGAGWLKVSLGLLPEQPDLAALGRRLARHGLQLLVENDQTPQGGRIEVLERFFRLAERQQLDLAMTFDIGNWRWQEQAADEAALRLGRYVGYVHCKAVIRNRDGKLVAVPPSAADLQYWQRLLQHFPEGVARAIEYPLQGDDLLSLSRRHIAALARLGQPQEERQHG | not failed |
| MSLHTSHVIPAPRIDVWEWHTRPGAVFRLTPPFLPLRPLEQATSLAKGTTVFALPAGLRWEARHDLSGYIQHHRFTDVCINAPVKSLASWRHIHDFTDHPSGTLITDTVHTRAPRTTLSPAFAYRQHQLINDIQAQQRFYELTRSNPTESTPLTIGLTGSRGLVGRALTAQLTTLGHTVVQLVRGESKPHQRHWDPAHPAPNLLEGLDALIHLAGEPILGRFNDAHKADIRDSRIEPTRQLSQLVQKSSTCRTMVSASAIGYYGHARGDEILDEGSTQGDDFLASVCEEWEAASRTDATSNKRIVNIRTGVVMSGRGGMLPVLKAVFSVGLGGPFRGSNPWMSWIAIDDLCDIYIRAVLDPKLSGAINAVAPNPIKNQDFVDALAKELKRPAKMTISSLGPAILLGQQGAKELALADQRVQPRVLNNLDHHFRYVDIRSCLAHELGGENLLDI | failed |
| MSLIADHGFAFLVLACLFGFFMAWGVGANDVANAMGTSVGSRALTIRQAILVAMVFEFCGAYFAGGEVTETIRSGIVDPQYMTPDLLVFGMLSALLAAGVWLLLATIKGWPVSTTHSIVGAIIGFASVGVSVHAVHWGAIGPIVASWVVTPVLSGLLAFALFRSVQWLVLHAEDPFRSARRYVPLYMFLAGFMVALMTVGKGLKHVGLELSGLQTLGLALLAGGLVMGLGIVLLLRIRPTGGADPRGGFASVERVFAVLMIFTACSMAFAHGANDVANAIGPVAAVVAVVQAGGDLDLVSRSPVPSWVLLLGAVGIVIGLATYGYRVIATIGREITELTPSRGFAAELATASTVVGASAIGLPVSTTHTLVGAVLGIGMARGIGALNLRVIGSIFLSWVVTLPAGAVLAILFFLVLRALFGA | failed |
| MSLIAIVLVFIMAIVVTVFLSHLLPVKVPLPLIQIAAGAALAASGFQVDFDPHIFLLLFIPPLLFLDGWRIPKDAFFRDMKPILSLAIGLVMVTILGIGLFIHWLIPAITVAAGFALAAILSPTDPVAVSAMTASSPLPSRMAHILEGESLLNDASGLVAFNFAIAAVLTGSFSPGDAVVKFFLMAFGGILSGLVVVWVTGKCNNFLVRRTREEPAIQILISLLIPFAAYLLAEAFHVSGILAAVAAGIAMHYEQLSGPRLPATRMKSSAVWSMLQTTLNGMIFLMLGEQLPRMLRTLPAVASQAGVSSPWYLLLYAVAITLALGLMRFAWVWLSMKLTIFRRKRRGKAITVRPRFSILAVMALAGVKGSVTLAGILTLPVVLADGSPFPGRELLIFLSMAVILMSLVVAAIGLPFMTRYLADDLPHDTGKDDIGAVMTEVAINRLNALLDEPVEDPSEQALRADAGNMLLETYQRRLHYNDNDEGQDVGLELAKRARLEKYMQREVIIAQRQELFRLRRAHNISDITFYEVLREIDLKEESLR | failed |
| MSLIDFHVHLDLYPDPVAVARACEERQLTVLSVTTTPAAWRGTLALAAGRPHVWTALGFHPEVVSERAADLPWFDRYLPETRFVGEVGLDGSPSLRGTWTQQFAVFQHILRRCEDHGGRILSIHSRRAESEVLNCLEANPRSGTPILHWYSGSVTELRRAISLGCWFSVGPTMVRTQKGAALIRSMPRDRVLTETDGPFLELDGQAALPWDVKSVVEGLSKIWQIPASEVERIVKENVSRLLGTVREGHHHHHH | not failed |
| MSLIIDGHTHVILPVEKHIKIMDEAGVDKTILFSTSIHPETAVNLRDVKKEMKKLNDVVNGKTNSMIDVRRNSIKELTNVIQAYPSRYVGFGNVPVGLSENDTNSYIEENIVNNKLVGIGELTPASGQIKSLKPIFKYSMDSGSLPIWIHAFNPLVLQDIKEIAELCKAFPKVPVILGHMGGSNWMTAVELAKEIQNLYLDTSAYFSTFVLKIVINELPLKCIFGTDMPFGDLQLSIEAIKKMSNDSYVANAVLGDNISRLLNIEGHHHHHH | not failed |
| MSLIIQVSPAGSMDLLSQLEVERLKKTASSDLYQLYRNCSLAVLNSGSHTDNSKELLDKYKNFDITVMRRERGIKLELANPPEHAFVDGQIIKGIQEHLFSVLRDIVYVNMHLADSQRLNLTNATHITNLVFGILRNAGALIPGATPNLVVCWGGHSINEVEYQYTREVGHELGLRELNICTGCGPGAMEGPMKGAAVGHAKQRYSEYRYLGLTEPSIIAAEPPNPIVNELVIMPDIEKRLEAFVRMAHGIIIFPGGPGTAEELLYILGIMMHPENADQPMPIVLTGPKQSEAYFRSLDKFITDTLGEAARKHYSIAIDNPAEAARIMSNAMPLVRQHRKDKEDAYSFNWSLKIEPEFQLPFEPNHESMANLDLHLNQRPEVLAANLRRAFSGVVAGNVKAEGIREIERHGPFEMHGDPVLMKKMDQLLNDFVAQNRMKLPGGSAYEPCYKIVTEGHHHHHH | not failed |
| MSLILCIDVGNSHIYGGVFDGDEIKLRFRHTSKVSTSDELGIFLKSVLRENNCSPETIRKIAICSVVPQVDYSLRSACVKYFSIDPFLLQAGVKTGLNIKYRNPVEVGADRIANAIAATHSFPNQNIIVIDFGTATTFCAISHKKAYLGGAILPGLRLSADALSKNTAKLPSVEIIKTESVVGRSTIESIQSGVYYGVLGACKELIQRIHHEAFNGDQILILATGGFASLFDKQGLYDHLVPDLVLQGIRLAAMMNTAEGHHHHHH | not failed |
| MSLIRWLVERWLEFMGNHPFLFGTLAILIVLFFIFEGQRNGRKISPQSLGILIKAKNAQLIDLRDAKDFREGHISGSRNIPYSQITSHVDELKASERPLVFICNLGQVAGSALQKIGHADSYRLDGGISNWKAQGLPLVKAKTKA | failed |
| MSLKDVSLSSFDAHDLDLDKFPEVVRDRLTQFLDAQELTIADIGAPVTDAVAHLRSFVLNGGKRIRPLYAWAGFLAAQGHKNSSEKLESVLDAAASLEFIQACALIHDDIIDSSDTRRGAPTVHRAVEADHRANNFEGDPEHFGVSVSILAGDMALVWAEDMLQDSGLSAEALARTRDAWRGMRTEVIGGQLLDIYLESHANESVELADSVNRFKTAAYTIARPLHLGASIAGGSPQLIDALLHYGHDIGIAFQLRDDLLGVFGDPAITGKPAGDDIREGKRTVLLALALQRADKQSPEAATAIRAGVGKVTSPEDIAVITEHIRATGAEEEVEQRISQLTESGLAHLDDVDIPDEVRAQLRALAIRSTERREGHHHHHH | not failed |
| MSLKENKYDDKHFFEQYSQMPRSKEGLKAAGEWHELKKMLPDFNQKTVLDLGCGFGWHCIYAAEHGAKKVLGIDLSERMLTEAKRKTTSPVVCYEQKAIEDIAIEPDAYNVVLSSLALHYIASFDDICKKVYINLKSSGSFIFSVEHPVFTADGRQDWYTDETGNKLHWPVDRYFNESMRTSHFLGEDVQKYHRTVTTYIQTLLKNGFQINSVIEPEPAPELKDLPEMQDEYRRPMMLLISATKQEGHHHHHH | not failed |
| MSLKHYSIQPANLEFNAEGTPVSRDFDDVYFSNDNGLEETRYVFLGGNQLEARFPEHPHPLFVVAESGFGTGLNFLTLWQAFDQFREAHPQAQLQRLHFISFEKFPLTRADLALAHQHWPELAPWAEQLQAQWPMPLPGCHRLLLDEGRVTLDLWFGDINELISQLDDSLNQKVDAWFLDGFAPAKNPDMWTQNLFNAMARLARPGGTLATFTSAGFVRRGLQEAGFTMQKRKGFGRKREMLCGVMEQTEGHHHHHH | not failed |
| MSLKIAVTGGTGFLGQYVVESIKNDGNTPIILTRSIGNKAINDYEYRVSDYTLEDLINQLNDVDAVVHLAATRGSQGKISEFHDNEILTQNLYDACYENNISNIVYASTISAYSDETSLPWNEKELPLPDLMYGVSKLACEHIGNIYSRKKGLCIKNLRFAHLYGFNEKNNYMINRFFRQAFHGEQLTLHANSVAKREFLYAKDAAKSVIYALKQEKVSGTFNIGSGDALTNYEVANTINNAFGNKDNLLVKNPNANEGIHSSYMDSSKAKELLDFSTDYNFATAVEEIHLLMRGLDDVPLWYEGHHHHHH | not failed |
| MSLKICVIGSSGHFRYALEGLDEECSITGIAPGVPEEDLSKLEKAISEMNIKPKKYNNWWEMLEKEKPDILVINTVFSLNGKILLEALERKIHAFVEKPIATTFEDLEKIRSVYQKVRNEVFFTAMFGIRYRPHFLTAKKLVSEGAVGEIRLVNTQKSYKLGQRPDFYKKRETYGGTIPWVGIHAIDWIHWITGKKFLSVYATHSRLHNSGHGELETTALCHFTLENEVFASLSIDYLRPQGAPTHDDDRMRIVGTRGIVEVINERVFLTDEKGHREVPLVEKGQIFEDFLREIRGQGKCMVTPEDSILTTEIALKARLSADTGQIVLIEGHHHHHH | not failed |
